From patent publication US20250000946A1 (WUXI BIOLOGICS IRELAND, published 2025)
Residue numbers refer to the chain shown, from its start. Names and notes keep the numbering of the source. Where two headings read alike, the source gives them in different places.

Tests used:
[1] = biological target: T1, Human IL-2Rβ/γ (intermediate affinity IL-2 receptor) (human, UniProt P14784 27-551; P31785 23-369); assay: FACS, HH cells; EC50 fold vs T2U0.E44-1
T1 construct: whole, on cells; also called IL-2Rβ/γc; IL-2Rβ (CD122) and γ (CD132)
T1 sequence (looked up) 1: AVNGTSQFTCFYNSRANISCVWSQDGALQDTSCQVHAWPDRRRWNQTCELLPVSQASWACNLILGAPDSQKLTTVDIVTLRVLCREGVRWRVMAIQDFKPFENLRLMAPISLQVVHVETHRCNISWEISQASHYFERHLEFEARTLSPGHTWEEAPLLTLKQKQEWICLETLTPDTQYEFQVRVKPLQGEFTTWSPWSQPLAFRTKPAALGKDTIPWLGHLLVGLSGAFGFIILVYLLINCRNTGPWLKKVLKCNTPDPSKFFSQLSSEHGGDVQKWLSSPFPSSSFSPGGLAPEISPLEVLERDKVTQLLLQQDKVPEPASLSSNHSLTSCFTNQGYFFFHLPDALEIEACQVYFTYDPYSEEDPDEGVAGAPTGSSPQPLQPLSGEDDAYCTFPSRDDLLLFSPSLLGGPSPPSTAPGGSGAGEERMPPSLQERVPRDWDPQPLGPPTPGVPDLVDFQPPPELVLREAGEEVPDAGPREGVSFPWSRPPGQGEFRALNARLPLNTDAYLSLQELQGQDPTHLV
T1 sequence (looked up) 2: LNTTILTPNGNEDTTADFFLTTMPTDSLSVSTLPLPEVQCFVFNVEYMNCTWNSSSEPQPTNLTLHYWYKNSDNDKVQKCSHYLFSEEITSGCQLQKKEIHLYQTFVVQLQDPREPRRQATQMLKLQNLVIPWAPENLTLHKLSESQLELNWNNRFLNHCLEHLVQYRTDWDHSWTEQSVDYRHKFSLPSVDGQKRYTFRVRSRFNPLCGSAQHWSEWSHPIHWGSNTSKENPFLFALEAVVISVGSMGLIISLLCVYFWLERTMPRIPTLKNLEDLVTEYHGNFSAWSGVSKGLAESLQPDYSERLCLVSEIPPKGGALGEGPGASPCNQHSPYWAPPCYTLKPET
Procedure: (§1) Human cutaneous T cell lymphoma HH cells, malignant non-Hodgkin's lymphoma NK92 cells and cutaneous T cell lymphoma MJ20 cells were used for binding assay. They both constitutively express IL-2Rβ (CD122) and […] (CD132), and NK92 and MJ20 also expresses IL-2Rα (CD25). HH, NK92 and MJ20 cells were cultured following ATCC guidance, then transferred to a 96-plate for binding analysis. Cells were incubated with IL-2/Fc fusion proteins at the indicated concentrations for 30 min at 4° C. to avoid internalization. Binding was detected by 2nd antibody of PE-anti-human Fc at 4° C. for another 30 min. The median fluorescence intensity (MFI) on HH and NK92 cells was measured using FACS.

[2] = biological target: T2, Human IL-2Rα/β/γ complex (high affinity IL-2 receptor) (human, UniProt P01589 22-272; P14784 27-551; P31785 23-369); assay: FACS, MJ20 cells
T2 construct: whole, on cells
T2 sequence (looked up) 1: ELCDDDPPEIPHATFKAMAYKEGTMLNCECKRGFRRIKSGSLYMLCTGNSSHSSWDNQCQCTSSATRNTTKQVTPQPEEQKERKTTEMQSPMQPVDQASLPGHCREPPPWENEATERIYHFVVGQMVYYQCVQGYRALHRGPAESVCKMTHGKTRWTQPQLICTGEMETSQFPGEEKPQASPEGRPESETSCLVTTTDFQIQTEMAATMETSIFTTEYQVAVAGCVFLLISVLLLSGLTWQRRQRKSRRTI
T2 sequence (looked up) 2: T1 sequence (looked up) 1
T2 sequence (looked up) 3: T1 sequence (looked up) 2
Procedure: as §1
(§2) Affinity of IL-2 variants to IL-2Rα/β/γ supported the same results (FIG. 8 and Table 7). […] And T2U0.E44-26, T2U0.E44-27, T2U0.E44-29 and T2U0.E44-30 induced hundreds to thousands affinity reduction in Treg compared to T2U0.E44-1. Binding curves in MJ20 cells (IL-2Rα/β/γ) also achieved similar trend (FIG. 8b). As a result, the method of C-terminal truncation and substitution of 129 was available to achieve IL-2Rβγ attenuated IL-2 variants.

[3] = biological target: T2, Human IL-2Rα/β/γ complex (high affinity …); assay: FACS, NK92 cells
Procedure: as §1

[4] = biological target: T1, Human IL-2Rβ/γ (intermediate affinity …); assay: FACS, HH cells
Procedure: as §1

[5] = biological target: T1, Human IL-2Rβ/γ (intermediate affinity …); assay: FACS, HH cells; EC50 fold vs T2U0.E44-1; remark: listed apart in the source
Procedure: as §1

[6] = biological target: T2, Human IL-2Rα/β/γ complex (high affinity …); assay: FACS, MJ20 cells; EC50 fold vs T2U0.E44-1
Procedure: as §1, §2

[7] = biological target: T2, Human IL-2Rα/β/γ complex (high affinity …); assay: cell-based or functional assay
[8] = biological target: T1, Human IL-2Rβ/γ (intermediate affinity …); assay: cell-based or functional assay
[9] = biological target: T2, Human IL-2Rα/β/γ complex (high affinity …); assay: cell-based or functional assay; remark: listed apart in the source
[10] = biological target: T1, Human IL-2Rβ/γ (intermediate affinity …); assay: cell-based or functional assay; remark: listed apart in the source
[11] = biological target: T2, Human IL-2Rα/β/γ complex (high affinity …); assay: FACS, NK92 cells; EC50 fold vs T2U0.E44-1
Procedure: as §1

[12] = biological target: T1, Human IL-2Rβ/γ (intermediate affinity …); assay: FACS, HH cells; remark: listed apart in the source
Procedure: as §1

[13] = biological target: T2, Human IL-2Rα/β/γ complex (high affinity …); assay: FACS, MJ20 cells; remark: listed apart in the source
Procedure: as §1

[14] = biological target: T2, Human IL-2Rα/β/γ complex (high affinity …); assay: cell-based or functional assay; remark: listed apart in the source
[15] = biological target: T1, Human IL-2Rβ/γ (intermediate affinity …); assay: cell-based or functional assay; remark: listed apart in the source
[16] = biological target: T2, Human IL-2Rα/β/γ complex (high affinity …); assay: FACS, MJ20 cells; EC50 fold vs T2U0.E44-1; remark: listed apart in the source
Procedure: as §1

B1: W3XX115-T2U0.E44-6.uIgG4V1 (Fc fusion)
chain: APTSSSTKKTQLQLEHLLLDLQMILNGINNYKNPKLTRMLTFKFYMPKKATELKHLQCLEEELKPLEEVLNLAQSKNFHLRPRDLISNINVIVLELKGSETTFMCEYADETATIVEFLNRWITFCQSIIESKYGPPCPPCPAPEFLGGPSVFLFPPKPKDTLMISRTPEVTCVVVDVSQEDPEVQFNWYVDGVEVHNAKTKPREEQFNSTYRVVSVLTVLHQDWLNGKEYKCKVSNKGLPSSIEKTISKAKGQPREPQVYTLPPCQEEMTKNQVSLWCLVKGFYPSDIAVEWESNGQPENNYKTTPPVLDSDGSFFLYSRLTVDKSRWQEGNVFSCSVMHEALHNHYTQKSLSLSLG
heavy: EIQLQQSGPELVKPGASVKVSCKASGYSFTDYNMYWVKQSHGESLEWIGYIDPYNGGTRYNQKFKGKATLTVDKSSSTAFMHLNSLTSEDSAVYYCARNGHWDGAWFAYWGQGTLVTVSAASTKGPSVFPLAPCSRSTSESTAALGCLVKDYFPEPVTVSWNSGALTSGVHTFPAVLQSSGLYSLSSVVTVPSSSLGTKTYTCNVDHKPSNTKVDKRVESKYGPPCPPCPAPEFLGGPSVFLFPPKPKDTLMISRTPEVTCVVVDVSQEDPEVQFNWYVDGVEVHNAKTKPREEQFNSTYRVVSVLTVLHQDWLNGKEYKCKVSNKGLPSSIEKTISKAKGQPREPQVCTLPPSQEEMTKNQVSLSCAVKGFYPSDIAVEWESNGQPENNYKTTPPVLDSDGSFFLVSRLTVDKSRWQEGNVFSCSVMHEALHNHYTQKSLSLSLG
light: DIQMNQSPSSLSASLGDTITITCHASQNINVWLSWYQQKPGNIPKLLIYKASNLHTGVPSRFSGSRSGTGFTLTISSLQPEDIATYYCHQGQSYPFTFGSGTKLEIKRTVAAPSVFIFPPSDEQLKSGTASVVCLLNNFYPREAKVQWKVDNALQSGNSQESVTEQDSKDSTYSLSSTLTLSKADYEKHKVYACEVTHQGLSSPVTKSFNRGEC
notes: IL-2 with C-terminal 4 aa (STLT) deleted; E44 format, IgG4
[1]
  Affinity reduction: 9.9 fold
[2]
  EC50: 56.6 nM
[3]
  EC50: 13.7 nM
[4]
  EC50: 437 nM
[5]
  Affinity reduction: 14.1 fold
[6]
  Affinity reduction: 4 fold
[7]
  Potency in human Treg EC50: 0.032 nM
  Potency reduction (Treg): 12.6 fold
[8]
  Potency in human CD8+ T EC50: 360 nM
  Potency reduction (CD8+ T): 18 fold
[9]
  Potency in human Treg EC50: 1.51 nM
  Potency reduction (Treg): 58.4 fold
[10]
  Potency in human CD8+ T EC50: 175 nM
  Potency reduction (CD8+ T): 18.3 fold
[11]
  Affinity reduction: 2.48 fold
[12]
  EC50: 533 nM

B2: W3XX115-T2U0.E44-25.uIgG4V1 (Fc fusion)
chain: APTSSSTKKTQLQLEHLLLDLQMILNGINNYKNPKLTRMLTFKFYMPKKATELKHLQCLEEELKPLEEVLNLAQSKNFHLRPRDLISNINVIVLELKGSETTFMCEYADETATIVEFLNRWITFCQSIIKYGPPCPPCPAPEFLGGPSVFLFPPKPKDTLMISRTPEVTCVVVDVSQEDPEVQFNWYVDGVEVHNAKTKPREEQFNSTYRVVSVLTVLHQDWLNGKEYKCKVSNKGLPSSIEKTISKAKGQPREPQVYTLPPCQEEMTKNQVSLWCLVKGFYPSDIAVEWESNGQPENNYKTTPPVLDSDGSFFLYSRLTVDKSRWQEGNVFSCSVMHEALHNHYTQKSLSLSLG
heavy: B1 heavy
light: B1 light
notes: IL-2 del STLT and 2 aa deleted in IgG4 N-terminal hinge; E44 format
[1]
  Affinity reduction: 23.8 fold
[2]
  EC50: 63.2 nM
[6]
  Affinity reduction: 4.5 fold
[7]
  Potency in human Treg EC50: 0.022 nM
  Potency reduction (Treg): 8.8 fold
[8]
  Potency in human CD8+ T EC50: 84.9 nM
  Potency reduction (CD8+ T): 4.2 fold
[12]
  EC50: 1280 nM

B3: W3XX115-T2U0.E44-37.uIgG4V322 (Fc fusion)
chain: B1 chain with S127N, I129S, F145A, L146A
heavy: B1 heavy with F234A, L235A
light: B1 light
notes: IL-2 del STLT, S127N and I129S (glycosylation design); E44 format, IgG4 FALA
[13]
  EC50: 87.7 nM
[5]
  Affinity reduction: 190000 fold
[14]
  Potency in human Treg EC50: 8 nM
  Potency reduction (Treg): 4060 fold
[15]
  Potency in human CD8+ T EC50: ~17.6 nM
[16]
  Affinity reduction: 2.1 fold

B4: W3XX115-T2U0.E44-24.uIgG4V1 (Fc fusion)
chain: APTSSSTKKTQLQLEHLLLDLQMILNGINNYKNPKLTRMLTFKFYMPKKATELKHLQCLEEELKPLEEVLNLAQSKNFHLRPRDLISNINVIVLELKGSETTFMCEYADETATIVEFLNRWITFCQSIISKYGPPCPPCPAPEFLGGPSVFLFPPKPKDTLMISRTPEVTCVVVDVSQEDPEVQFNWYVDGVEVHNAKTKPREEQFNSTYRVVSVLTVLHQDWLNGKEYKCKVSNKGLPSSIEKTISKAKGQPREPQVYTLPPCQEEMTKNQVSLWCLVKGFYPSDIAVEWESNGQPENNYKTTPPVLDSDGSFFLYSRLTVDKSRWQEGNVFSCSVMHEALHNHYTQKSLSLSLG
heavy: B1 heavy
light: B1 light
notes: IL-2 del STLT and 1 aa deleted in IgG4 N-terminal hinge; E44 format
[1]
  Affinity reduction: 8.1 fold
[2]
  EC50: 18.4 nM
[6]
  Affinity reduction: 1.3 fold
[7]
  Potency in human Treg EC50: 0.003 nM
  Potency reduction (Treg): 1.2 fold
[8]
  Potency in human CD8+ T EC50: 125 nM
  Potency reduction (CD8+ T): 6.3 fold
[12]
  EC50: 438 nM

B5: W3XX115-T2U0.E44-38.uIgG4V322 (Fc fusion)
chain: B1 chain with C125A, F145A, L146A
heavy: B1 heavy with F234A, L235A
light: B1 light
notes: IL-2 del STLT and C125A; E44 format, IgG4 FALA
[13]
  EC50: 201 nM
[5]
  Affinity reduction: 400000 fold
[14]
  Potency in human Treg EC50: 5 nM
  Potency reduction (Treg): 2540 fold
[15]
  Potency in human CD8+ T EC50: 268 nM
  Potency reduction (CD8+ T): 26.3 fold
[16]
  Affinity reduction: 4.8 fold
